# Assay results published in article PMC3351833 (Biochemical Journal, 2011).
# acyl = not defined here
# B1: Cx50p^141–166 (connexin50 CaM-binding domain peptide, residues 141–166) (peptide)
# peptide: acyl-SSKGTKKFRLEGTLLRTYVCHIIFKT-NH2
# modifications: reading uncertain
# Molecular target: calmodulin (recombinant rat CaM) (rat, UniProt P0DP29 2-149)
# Test: NMR titration
binder,measurement,value
B1,stoichiometry N,1
